Results: patent publication US20020160955A1

Target: T1, IGF-I F49A (G1S-A70V background) displayed on phage (human; bacteriophage M13)
T1 chain: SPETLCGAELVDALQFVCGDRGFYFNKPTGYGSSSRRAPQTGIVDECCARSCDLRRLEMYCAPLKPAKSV
Assay: competitive phage ELISA; IC50mut/IC50 G1S-A70V
Conditions: remark: other sources report otherwise

- relative IC50: > 100
B1: human IGFBP-1, P08833 26-259 (protein, UniProt P08833 26-259, looked up)
chain: APWQCAPCSAEKLALCPPVSASCSEVTRSAGCGCCPMCALPLGAACGVATARCARGLSCRALPGEQQPLHALTRGQGACVQESDASAPHAAEAGSPESPESTEITEEELLDNFHLMAPSEEDHSILWDAISTYDGSKALHVTNIKKWKEPCRIELYRVVESLAKAQETSGEEISKFYLPNCNKNGFYHSRQCETSMDGEAGLCWCVYPWNGKRIPGSPEIRGDPNCQIYFNVQN
